The data set deals with the molecule itself. The experiment in a line: crystal structure; vapour diffusion, crenactin around 2-5 mg/ml, 100 mM phosphate/citrate pH 4.2, 200 mM lithium sulfate, 20% PEG 1000; space group P41212; 3.2 Å; ADP bound.

B1: Pyrobaculum calidifontis crenactin (natural protein, UniProt A3MWN5 1-432, looked up)
chain: MGVISDAYRLKYTFGVDFGTSYVKYGPITLNEPKMVQTRGLFLRDLPESVKMRIPPDVLARGLVVGDEEVRKYLSSVRDVQRNLKYPLKDGVARRDDEEAWRVLKELARYTLAQFPVSDPEFAGWLVAVALSALAPDYMYKAIFDIYDELASEFKIYAVTILPQPLAVAIAENAVNCVIVEGGHGNIQVAPISFALIREGLVALNRGGAEANAITREILKDIGYSDIAREEYAVEVVKRAVGLVPRRLKEAIRAAKSDPDRFVTKVRLSPVVEVEIPREYAWTRFLIGEIVFDPNHEEIKSYIEQSRLRIENAVIGDVTLYGEMDVASAIITSLRNVSVEIQERVASQIILSGGAFSWRVPPGMEDVAADSVTRVKIALEEKSPALASKVEVRLVSEPQYSVWRGAVIYGYALPLSLEWSDTTREGWRFPRR
notes: crenactin, Pyrobaculum calidifontis, NCBI YP_001056518.1, residues 1-432; full-length protein with no residues added or removed after SUMO cleavage; Gene codon-optimised for E. coli, cloned into pOPINS (HIS6-SUMO-POI); the crystal holds 2 monomers per asymmetric unit, packing as a continuous filament; also called Pc crenactin; source: E. coli BL21(AI), purified (HisTrap, SUMO protease SENP1 …)
Take B1: the binding result is “binds”.

Source of the values: article PMC4158420, “Crenactin from Pyrobaculum calidifontis is closely related to actin in structure and forms steep helical filaments” (Febs Letters, 2014).
